The source of these data is patent US20240150495A1.

For test [1], the target named is T1, synthetic peptide Rp10-L, a mimotope of B-cell molecular marker CD20.
T1 sequence (peptide): ITPWPHWLERSS
In words: ELISA, periplasmic extract, Rp10-L 3.13 µg/ml; well without peptide 0.265. On the technique in general: ELISA stands for enzyme-linked immunosorbent assay.

The target is the same in test [2]. Briefly: ELISA, periplasmic extract, Rp10-L 0.81 µg/ml; well without peptide 0.265.
Test [3] has the same target. Briefly: ELISA, periplasmic extract, Rp10-L 1.63 µg/ml; well without peptide 0.265.
Test [4] has the same target. In words: ELISA, periplasmic extract, Rp10-L 6.25 µg/ml; well without peptide 0.265.
For test [5] the target is unchanged. Briefly: ELISA, periplasmic extract, Rp10-L 50.0 µg/ml; well without peptide 0.265.
Test [6] shares this target. In words: ELISA, periplasmic extract, Rp10-L 12.5 µg/ml; well without peptide 0.265.
Test [7] has the same target. In words: ELISA, periplasmic lysate on coated Rp10-L, single well; plate A background 0.027.
For test [8] the target is unchanged. In words: ELISA, periplasmic extract, Rp10-L 25.0 µg/ml; well without peptide 0.265.
Test [9] shares this target. In words: ELISA, periplasmic extract, Rp10-L 50.0 µg/ml; well without peptide 0.469.
Test [10] shares this target. Briefly: ELISA, periplasmic extract, Rp10-L 25.0 µg/ml; well without peptide 0.469.
For test [11] the target is unchanged. Briefly: ELISA, periplasmic extract, Rp10-L 1.63 µg/ml; well without peptide 0.469.
Test [12] has the same target. In words: ELISA, periplasmic extract, Rp10-L 6.25 µg/ml; well without peptide 0.469.
For test [13] the target is unchanged. Briefly: ELISA, periplasmic extract, Rp10-L 0.81 µg/ml; well without peptide 0.469.
For test [14] the target is unchanged. Briefly: ELISA, periplasmic lysate on coated Rp10-L, single well; plate D background 0.035.
Test [15] has the same target. Briefly: ELISA, periplasmic extract, Rp10-L 3.13 µg/ml; well without peptide 0.469.
Test [16] has the same target. In words: ELISA, periplasmic extract, Rp10-L 12.5 µg/ml; well without peptide 0.469.

Substitutions are numbered along the chain they refer to.

B1: CH3 clone A21 (mutated human IgG1 CH3 domain, CH3+3 library) (designed binder, not shown: small tags and cut ends)
chain: MAPREPQVYTLPPSRDELVDGQVSLTCLVKGFYPSDIAVEWESNGQPENNYKTTPPVLDSDGSFFLYSKLTVPWGPRDRWWPGNVFSCSVMHEALHNHYTQKSLSLSPGKAAA
B1: the ELISA absorbance in test [1] came out at 0.352; in test [2] it was 0.362; in test [3], 0.383; in test [4], 0.343; in test [5] it was 0.398; in test [6], 0.315. This molecule registered an ELISA absorbance in test [8] of 0.335. In [7], this molecule displayed an A492/620 of 0.395 A492/620.

B2: CH3 clone D39 (mutated human IgG1 CH3 domain, CH3+3 library) (designed binder, not shown: small tags and cut ends)
chain: B1 chain with V19G, D20W, G21W, P73Q, W74Q, G75K, R77F, D78A, W81T, P82D
In the case of B2, the ELISA absorbance was found to be 0.765 in test [9]; 0.868 in test [10]; 0.719 in test [11]; 0.694 in [12]; 0.66 in [13]; 0.719 in test [15]. Besides, the ELISA absorbance in test [16] came to 0.77. The molecule further returned an A492/620 in [14] of 0.448 A492/620.
